Measured values as given in patent publication US20190345230A1.
Numbering of substitutions follows the chain as printed.

Assays:
Test in all cases: cell-based or functional assay
[1] = molecular target: HA protein of influenza B virus B/Harbin/7/1994 (Yamagata lineage) (Influenza B virus B/Harbin/7/1994)
[2] = molecular target: HA protein of B/Singapore/3/1964 (Influenza B virus B/Singapore/3/1964) (UniProt P03464)
[3] = molecular target: HA protein of influenza B virus B/Brisbane/60/2008 (Victoria lineage) (Influenza B virus B/Brisbane/60/2008)
[4] = molecular target: HA protein of influenza B virus B/Xiamen/3043/2006 (Victoria lineage) (Influenza B virus B/Xiamen/3043/2006)
[5] = molecular target: HA protein of influenza B virus B/Xiamen/N697/2012 (Yamagata lineage) (Influenza B virus B/Xiamen/N697/2012)
[6] = molecular target: HA protein of influenza B virus B/Maryland/1/1959 (Influenza B virus B/Maryland/1/1959) (UniProt P03461)
[7] = molecular target: HA protein of influenza B virus B/Taiwan/2/1962 (Influenza B virus B/Taiwan/2/1962)
[8] = molecular target: HA protein of influenza B virus B/Hong Kong/330/2001 (Victoria lineage) (Influenza B virus B/Hong Kong/330/2001)
[9] = molecular target: HA protein of influenza B virus B/Lee/1940 (Influenza B virus B/Lee/1940) (UniProt P03460)
[10] = molecular target: HA protein of influenza B virus B/Great Lakes/1739/1954 (Influenza B virus B/Great Lakes/1739/1954)
[11] = molecular target: HA protein of influenza B virus B/Brisbane/33/2008 (Victoria lineage) (Influenza B virus B/Brisbane/33/2008)
[12] = molecular target: HA protein of influenza B virus B/Xiamen/891/2006 (Yamagata lineage) (Influenza B virus B/Xiamen/891/2006)
[13] = molecular target: HA protein of influenza A virus A/Brisbane/10/2007 (seasonal H3N2) (Influenza A virus A/Brisbane/10/2007 (H3N2))
[14] = molecular target: HA protein of influenza B virus B/Malaysia/2506/2004 (Victoria lineage) (Influenza B virus B/Malaysia/2506/2004)
[15] = molecular target: HA protein of influenza B virus B/Xiamen/N678/2012 (Victoria lineage) (Influenza B virus B/Xiamen/N678/2012)
[16] = molecular target: HA protein of B/Xiamen/1346/2008 (Victoria lineage) (Influenza B virus B/Xiamen/1346/2008 (Victoria lineage)) (UniProt P22092)
[17] = molecular target: HA protein of influenza B virus B/Xiamen/1147/2008 (Yamagata lineage) (Influenza B virus B/Xiamen/1147/2008)
[18] = molecular target: HA protein of influenza B virus B/Xiamen/165/2007 (Victoria lineage) (Influenza B virus B/Xiamen/165/2007)
[19] = molecular target: HA protein of influenza B virus B/Xiamen/756/2007 (Yamagata lineage) (Influenza B virus B/Xiamen/756/2007)
[20] = molecular target: HA protein of influenza B virus B/Xiamen/N639/2010 (Victoria lineage) (Influenza B virus B/Xiamen/N639/2010)
[21] = molecular target: HA protein of influenza B virus B/Florida/4/2006 (Yamagata lineage) (Influenza B virus B/Florida/4/2006)

B1: monoclonal antibody 7G6 (antibody, V domains shown)
VH: EVQLQQSGPELVKPGASVKISCKASGYTFTDYNMHWVKQSLGKSLEWIGYIYPNNGGTGYNQKFESKATLTVDNSSSTAYMELRTLTSEDSAVYYCVRSGAYYFNYLVPYFDYWGQGTTLTVSS
VL: NIVLTQSPASLAVSLGQRATISCRASESVDIYGNSFMHWYQQKPGQPPKLLIYLASKLECGVCARFNGSGCRTDFTLAIDPVEGDDGATYYCQQNYEDPWTFGGGTKLEIK
HI titer (dilution fold) [1]: < 100
Neutralization titer [1]: < 100 titer
HI titer (dilution fold) [2]: 3200
Neutralization titer [2]: > 25600 titer
HI titer (dilution fold) [3]: 3200
Neutralization titer [3]: 12800 titer
HI titer (dilution fold) [4]: 12800
Neutralization titer [4]: 12800 titer
HI titer (dilution fold) [5]: > 25600
Neutralization titer [5]: > 25600 titer
HI titer (dilution fold) [6]: 6400
Neutralization titer [6]: 800 titer
HI titer (dilution fold) [7]: 12800
Neutralization titer [7]: 12800 titer
HI titer (dilution fold) [8]: > 25600
Neutralization titer [8]: > 25600 titer
HI titer (dilution fold) [9]: 1600
Neutralization titer [9]: 1600 titer
HI titer (dilution fold) [10]: < 100
Neutralization titer [10]: < 100 titer
HI titer (dilution fold) [11]: 3200
Neutralization titer [11]: > 25600 titer
HI titer (dilution fold) [12]: > 25600
Neutralization titer [12]: > 25600 titer
HI titer (dilution fold) [13]: < 100
Neutralization titer [13]: < 100 titer
HI titer (dilution fold) [14]: 6400
Neutralization titer [14]: > 25600 titer
HI titer (dilution fold) [15]: 6400
Neutralization titer [15]: 6400 titer
HI titer (dilution fold) [16]: 6400
Neutralization titer [16]: 6400 titer
HI titer (dilution fold) [17]: > 25600
Neutralization titer [17]: > 25600 titer
HI titer (dilution fold) [18]: 12800
Neutralization titer [18]: 12800 titer
HI titer (dilution fold) [19]: 12800
Neutralization titer [19]: 12800 titer
HI titer (dilution fold) [20]: 3200
Neutralization titer [20]: 3200 titer
HI titer (dilution fold) [21]: > 25600
Neutralization titer [21]: > 25600 titer

B2: monoclonal antibody 11B10 (antibody, V domains shown)
VH: B1 VH with D31G, L41H, Y50K, G57V, K63E, E65R, T85S, V93I, Y95F, F104V
VL: B1 VL with L15P, V29I, Q42K, L54R, K57N, C60S, C63P, C71S, A78T
HI titer (dilution fold) [1]: < 100
Neutralization titer [1]: < 100 titer
HI titer (dilution fold) [2]: < 100
Neutralization titer [2]: 800 titer
HI titer (dilution fold) [3]: < 100
Neutralization titer [3]: 3200 titer
HI titer (dilution fold) [4]: 6400
Neutralization titer [4]: 6400 titer
HI titer (dilution fold) [5]: 800
Neutralization titer [5]: 800 titer
HI titer (dilution fold) [6]: < 100
Neutralization titer [6]: < 100 titer
HI titer (dilution fold) [7]: 800
Neutralization titer [7]: 800 titer
HI titer (dilution fold) [8]: 800
Neutralization titer [8]: > 25600 titer
HI titer (dilution fold) [9]: < 100
Neutralization titer [9]: < 100 titer
HI titer (dilution fold) [10]: < 100
Neutralization titer [10]: < 100 titer
HI titer (dilution fold) [11]: < 100
Neutralization titer [11]: 800 titer
HI titer (dilution fold) [12]: 800
Neutralization titer [12]: 800 titer
HI titer (dilution fold) [13]: < 100
Neutralization titer [13]: < 100 titer
HI titer (dilution fold) [14]: 3200
Neutralization titer [14]: > 25600 titer
HI titer (dilution fold) [15]: 400
Neutralization titer [15]: 400 titer
HI titer (dilution fold) [16]: 3200
Neutralization titer [16]: 3200 titer
HI titer (dilution fold) [17]: 800
Neutralization titer [17]: 800 titer
HI titer (dilution fold) [18]: 3200
Neutralization titer [18]: 3200 titer
HI titer (dilution fold) [19]: 400
Neutralization titer [19]: 400 titer
HI titer (dilution fold) [20]: 400
Neutralization titer [20]: 400 titer
HI titer (dilution fold) [21]: 400
Neutralization titer [21]: 6400 titer

B3: monoclonal antibody 12G6 (antibody, V domains shown)
VH: EVHLQQSGPELVKPGASVKMSCEASGYTFTDYYVAWVKQSPGESFEWIGRVNPYSGGTSYNQKFKGKATLIVDKSSSTAYMELSSLTSEDSAVYYCARWDYGVYEGYIDYWGQGSALTV
VL: DIQMTQSPASLSVSVGETVTITCRASEKIYSNLAWYQQKEGKSPQLLVYAAIRLADGVPSRFSGSGSGTQFSLKINSLQSEDFGTYYCQHFWGTPLTFGAGTKLELK
HI titer (dilution fold) [1]: 200
Neutralization titer [1]: 3200 titer
HI titer (dilution fold) [2]: 400
Neutralization titer [2]: 6400 titer
HI titer (dilution fold) [3]: 3200
Neutralization titer [3]: > 25600 titer
HI titer (dilution fold) [4]: < 100
Neutralization titer [4]: 3200 titer
HI titer (dilution fold) [5]: < 100
Neutralization titer [5]: 800 titer
HI titer (dilution fold) [6]: < 100
Neutralization titer [6]: 3200 titer
HI titer (dilution fold) [7]: < 100
Neutralization titer [7]: 1600 titer
HI titer (dilution fold) [8]: 3200
Neutralization titer [8]: > 25600 titer
HI titer (dilution fold) [9]: 6400
Neutralization titer [9]: 6400 titer
HI titer (dilution fold) [10]: 1600
Neutralization titer [10]: > 25600 titer
HI titer (dilution fold) [11]: 3200
Neutralization titer [11]: > 25600 titer
HI titer (dilution fold) [12]: < 100
Neutralization titer [12]: 1600 titer
HI titer (dilution fold) [13]: < 100
Neutralization titer [13]: < 100 titer
HI titer (dilution fold) [14]: 3200
Neutralization titer [14]: 12800 titer
HI titer (dilution fold) [15]: < 100
Neutralization titer [15]: 1600 titer
HI titer (dilution fold) [16]: < 100
Neutralization titer [16]: 3200 titer
HI titer (dilution fold) [17]: < 100
Neutralization titer [17]: 1600 titer
HI titer (dilution fold) [18]: < 100
Neutralization titer [18]: 6400 titer
HI titer (dilution fold) [19]: < 100
Neutralization titer [19]: 1600 titer
HI titer (dilution fold) [20]: < 100
Neutralization titer [20]: 3200 titer
HI titer (dilution fold) [21]: 12800
Neutralization titer [21]: > 25600 titer
